Publication PMC5986701, “A quantitative characterization of interaction between prion protein with nucleic acids”

B1: NC-DNA (dsDNA)
DNA 1: GACTTGTGGAAAATCTCTAGCAGTGCAT
DNA 2: ATGCACTGCTAGAGATTTTCCACAAGTC
B2: RQ11+12 (structured_RNA)
RNA: GGGGUUUCCAACCGGAAUUUGAGGGAUGCCUAGGCAUCCCCCGUGCGUCCCUUUACGAGGGAUUGUCGACUCUAGUCGACGUCUGGGCGAAAAAUGUACGAGAGGACCUUUUCGGUACAGACGGUACCUGAGGGAUGCCUAGGCAUCCCCGCGCGCCGGUUUCGGACCUCCAGUGCGUGUUACCGCACUGUCGACCC
B3: Lef-DNA (dsDNA)
DNA 1: GAGCTTCAAAGGGTG
DNA 2: CACCCTTTGAAGCTC
B4: MNV (structured_RNA)
RNA: GGGUUCAUAGCCUAUUCGGCUUUUAAAGGACCUUUUUCCCUCGCGUAGCUAGCUACGCGAGGUGACCCCCCGAAGGGGGGUGCCCC
B5: RQT157 (RQ157) (structured_RNA)
RNA: GGGGUUUCGAACCGGAAUUUGAGGGAUGCCUAGGCAUCCCCCGUGCGUCCCUUUACGAGGGAUUGUCGACUCUAGAGGAUCCGGUACCUGAGGGAUGCCUAGGCAUCCCCGCGCGCCGGUUUCGGACCUCCAGUGCGUGUUACCGCACUGUCGACCC

Tests used:
[1] = biological target: T1, alpha-PrP (human recombinant prion protein) (human, UniProt P04156 23-230); assay: fluorescence anisotropy; pH 7.2
[2] = biological target: T1, alpha-PrP (human recombinant prion …); assay: fluorescence anisotropy; pH 5

Binder	Kd [1] [nM]	Kd [2] [nM]	Kd ([1]; pseudoknot) [nM]	Kd ([2]; pseudoknot) [nM]
B1	1290 ± 210	1110 ± 230	–	–
B2	2200 ± 1500	–	–	–
GUCAAGGACAAGGUCAAGGUCAAGGUUCUUUUACUGCUUUGGGC (structured_RNA) [Ym44]	–	–	1790 ± 570	1630 ± 400
GCCUCAUGGUGGUGGCUGGGGGCAGCCUCAUGGUGGUGGCUGGGG (structured_RNA) [Hm45]	–	–	3340 ± 150	2900 ± 410
B3	5730 ± 570	1250 ± 320	–	–
CAGGGUGGCACCUGGGGGCAGCCCCACGGUGGUGGCUG (structured_RNA) [Mm38]	–	–	–	3820 ± 400
B4	4150 ± 610	–	–	–
GCCCCAUGGAGGUGGCUGGGGCCAGCCUCAUGGAGGUGGCUGGGGC (structured_RNA) [Cm47 (Cm48 in Table 2)]	–	–	1610 ± 400	1510 ± 350
B5	2890 ± 1500	–	–	–
